“Also recorded” adds a separate entry of the source.
What was measured:
BoyJ recipient mice = assay: Competitive repopulation BM transplantation of treated BM; format: in vivo; conditions: three weeks post-BMT, BM of treated mice vs IgG1 control
Protocol: FIG. 20A-20B. WT mice were treated with 50 mpk twice weekly of Parsatuzumab (@EGFL7) or IgG1 control. FIG. 20A. CBCs from mice harvested after treatment. FIG. 20B. Percent engraftment of treated BM (CD45.2+) transplanted into BoyJ recipient mice (CD45.1).
To assess the toxicity of Parsatuzumab on normal hematopoiesis, wild type (C57Bl/6J) mice were treated with Parsatuzumab (n=4) and IgG1 control (n=4) with the highest dose previously tested at 50 mpk twice a week for two weeks. Parsatuzumab targets both human and mouse EGFL7 protein. After two weeks of treatment, blood, spleen and BM were harvested and full phenotypic characterization was performed to assess toxicity. […] Full immunophenotypic examination of BM populations was also performed (data not shown due to space constraints). […] To functionally test the effect of Parsatuzumab on normal HSPCs, competitive repopulation BM transplantation (BMT) assays and CFU assays were performed. For competitive BMT, 2×10^6 WBM was harvested from Parsatuzumab and IgG1 treated mice (CD45.2) with 2×10^6 BoyJ (CD45.1) WBM and transplanted into lethally irradiated BoyJ recipients.

THP-1 cells [1] = assay: Differentiation (CD11B and CD14 staining), THP-1; format: cell-based, human; conditions: 96-hours post anti-EGFL7 treatment
Protocol: (§1) FIG. 24A-24G. EGFL7 prevents activation of NOTCH signaling in AML cells. (FIG. 24A) Overview of experiments using DLL4-FC and IgG-FC control coated plates to induce NOTCH activation. (FIG. 24B) THP-1 cells were pre-treated with 10 μM γ-secretase inhibitor (AVA), 100 μg/ml anti-EGFL7 antibody or 0.25 μM rEGFL7 for 30 min, then transferred to IgG-Fc or DLL4-Fc coated plates. After 4 h of incubation total RNA from THP-1 cells was extracted for qRT-PCR analysis of HES1 with β-ACTIN as internal control. ^###P<0.001 DLL4-FC vs IgG-FC; ***P<0.001 DLL4+AVA, DLL4+rEGFL7, and DLL4+anti-EGFL7 vs DLL4-FC. […] THP-1 cells were treated with the indicated concentration of anti-EGFL7 (@E7) then assessed for apoptosis using (FIG. 24D) AnnexinV+ staining and FACS; *P<0.05 (FIG. 24E) Immuno-blotting for PARP1 and Casp3 cleavage. (FIG. 24F) Cell differentiation was assessed by CD11B and CD14 staining 96-hours post anti-EGFL7 treatments; *P<0.05. (FIG. 24G) To determine whether activation of NOTCH by DLL4-Fc could be accentuated by anti-EGFL7 treatment, THP-1 cells were first treated with anti-EGFL7 (100 μg/ml) and then cultured on DLL4-FC or IgG-Fc coated plates and then assessed for apoptosis using AnnexinV+ staining and FACS. *P<0.05 DLL4-Fc and anti-EGFL7; vs DLL4-FC+anti-EGFL7. […]

THP-1 cells [2] = assay: Apoptosis (AnnexinV+ FACS), THP-1; format: cell-based, human; conditions: anti-EGFL7 treatment
Protocol: as §1

B1: Parsatuzumab: Anti-human EGFL7 therapeutic antibody (Parsatuzumab) obtained from Creative Biolabs; blocking monoclonal antibody (antibody, chains of the INN, looked up, V domains shown)
VH: EVQLVESGGGLVQPGGSLRLSCAASGYTFIDYYMNWVRQAPGKGLEWVGDINLDNSGTHYNQKFKGRFTISRDKSKNTAYLQMNSLRAEDTAVYYCAREGVYHDYDDYAMDYWGQGTLVTVSS
VL: DIQMTQSPSSLSASVGDRVTITCRTSQSLVHINAITYLHWYQQKPGKAPKLLIYRVSNRFSGVPSRFSGSGSGTDFTLTISSLQPEDFATYYCGQSTHVPLTFGQGTKVEIK
donor chimerism / percent engraftment (CD45.1 vs CD45.2) (BoyJ recipient mice): no significant differences; also recorded: No significant changes | CD11B and CD14 expression (THP-1 cells [1]): increases were found in both these markers | AnnexinV+ apoptotic cells (THP-1 cells [2]): increase in AnnexinV+
